Experimental data from patent USRE49847 (dated 2024).

T1: soluble CD22-Fc (R&D Systems) (UniProt P20273 20-687)
T1 construct: Bought reagent used to stain CD22 CARs; not shown: Fc part; detected with anti-human IgG Fc-gamma secondary
T1 sequence (looked up): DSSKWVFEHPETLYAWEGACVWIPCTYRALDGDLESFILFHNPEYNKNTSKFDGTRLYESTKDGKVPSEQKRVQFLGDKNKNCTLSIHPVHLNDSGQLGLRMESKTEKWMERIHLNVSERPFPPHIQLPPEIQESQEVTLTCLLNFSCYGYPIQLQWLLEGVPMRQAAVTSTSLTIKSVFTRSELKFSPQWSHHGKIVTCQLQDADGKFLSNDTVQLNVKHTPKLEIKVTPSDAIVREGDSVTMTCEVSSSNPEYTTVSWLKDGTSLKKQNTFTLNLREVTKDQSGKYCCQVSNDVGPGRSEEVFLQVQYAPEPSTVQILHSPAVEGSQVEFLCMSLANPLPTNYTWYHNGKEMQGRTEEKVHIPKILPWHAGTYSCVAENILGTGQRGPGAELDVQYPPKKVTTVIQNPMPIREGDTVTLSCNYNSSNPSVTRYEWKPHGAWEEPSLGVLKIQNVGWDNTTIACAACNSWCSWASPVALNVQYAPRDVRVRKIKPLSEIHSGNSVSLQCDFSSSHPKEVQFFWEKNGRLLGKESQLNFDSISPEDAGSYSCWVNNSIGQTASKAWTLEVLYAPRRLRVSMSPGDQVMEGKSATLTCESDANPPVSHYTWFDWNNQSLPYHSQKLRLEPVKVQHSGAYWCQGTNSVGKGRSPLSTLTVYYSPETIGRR


What follows are binders tested against T1, soluble CD22-Fc (R&D Systems) (assay: flow cytometry, soluble CD22-Fc plus anti-human Fc-PE on CAR-transduced primary T cells (FIG. 4)).

Binder	MFI
CD22-58 CAR (other, CAR on primary human T cells; not shown: hinge, transmembrane, 4-1BB and CD3zeta parts of the CAR) EVQLQQSGPGLVNPSQTLSITCAISGDSVSSNSAAWNWIRQSPSRGLEWLGRTFYRSKWYNDYAVSVKGRITISPDTSKNQFSLQLNSVTPEDTAVYYCAGGDYYYGLDVWGQGTTVTVSSGGGGSGGGGSGGGGSQSALTQPASVSGSPGQSITISCTGSSSDVGGYNSVSWYQQHPGKAPKLMIYEVINRPSGVSHRFSGSKSGNTASLTISGLQAEDEADYYCSSYTSSSTYVFGTGTKVTVL	5700
CD22-57 CAR (other, CAR on primary human T cells; not shown: hinge, transmembrane, 4-1BB and CD3zeta parts of the CAR) EVQLQQSGPGLVKPSQTLSLTCAISGDSVSNNNAAWNWIRQSPSRGLEWLGRTYHRSTWYNDYVGSVKSRITINPDTSKNQFSLQLNSVTPEDTAVYYCARETDYGDYGAFDIWGQGTTVTVSSGGGGSGGGGSGGGGSQSALTQPASVSGSPGQSITISCTGSRNDIGAYESVSWYQQHPGNAPKLIIHGVNNRPSGVFDRFSVSQSGNTASLTISGLQAEDEADYYCSSHTTTSTLYVFGTGTKVTVL	> 20000
CD22-53 CAR (other, Control CD22 CAR; not shown: hinge, transmembrane, 4-1BB and CD3zeta parts of the CAR) EVQLQQSGPGLVKPSQTLSLTCAISGDSVSSNSAAWNWIRQSPSRGLEWLGRTYYRSKWYSDYAVSVKSRITINPDTSKNQFSLQLNSVTPEDTAVYYCARDPYDFWSGYPDAFDIWGQGTMVTVSSGGGGSGGGGSGGGGSQSALTQPASVSGSPGQSITISCTGTSSDVGGYNYVSWYQQHPGKAPKVIISEVNNRPSGVSHRFSGSKSGNTASLTISGLQAEDEADYFCSSYTSGRTLYVFGTGSKVTVLG	> 20000
CD22-61 CAR (other, CAR on primary human T cells; not shown: hinge, transmembrane, 4-1BB and CD3zeta parts of the CAR) QVQLQESGPGLVKPSQTLSLTCAISGDSVLSNSDTWNWIRQSPSRGLEWLGRTYHRSTWYDDYASSVRGRVSINVDTSKNQYSLQLNAVTPEDTGVYYCARDRLQDGNSWSDAFDVWGQGTMVTVSSGGGGSGGGGSGSGGSQSALTQPASVSGSPGQSITISCTGTSSDVGGYNYVSWYQQHPGKAPKLMIYEVSNRPSGVSNRFSGSKSGNTASLTISGLQAEDEADYYCSSYTSSSTLYVFGTGTKVTVL	> 20000

Further lines, results first:

MFI	Binder
> 20000	CD22-65 CAR (other, also called CD22-65_Zmut) EVQLQQSGPGLVKPSQTLSLTCAISGDSMLSNSDTWNWIRQSPSRGLEWLGRTYHRSTWYDDYASSVRGRVSINVDTSKNQYSLQLNAVTPEDTGVYYCARVRLQDGNSWSDAFDVWGQGTMVTVSSGGGGSGGGGSGGGGSQSALTQPASASGSPGQSVTISCTGTSSDVGGYNYVSWYQQHPGKAPKLMIYDVSNRPSGVSNRFSGSKSGNTASLTISGLQAEDEADYYCSSYTSSSTLYVFGTGTQLTVLTTTPAPRPPTPAPTIASQPLSLRPEACRPAAGGAVHTRGLDFACDIYIWAPLAGTCGVLLLSLVITLYCKRGRKKLLYIFKQPFMRPVQTTQEEDGCSCRFPEEEEGGCELRVKFSRSADAPAYKQGQNQLYNELNLGRREEYDVLDKRRGRDPEMGGKPRRKNPQEGLYNELQKDKMAEAYSEIGMKGERRRGKGHDGLYQGLSTATKDTYDALHMQALPPR
> 20000	CD22-64 CAR (other, CAR on primary human T cells; not shown: hinge, transmembrane, 4-1BB and CD3zeta parts of the CAR) EVQLQQSGPGLVKPSQTLPLTCAISGDSVLSNSDTWNWIRQSPSRGLEWLGRTYHRSTWYDDYASSVRGRVSINVDTSKNQYSLQLNAVTPEDTGVYYCARVRLQDGNSWSDAFDVWGQGTMVTVSSGGGGSGGGGSGGGGPQSALTQPASASGSPGQSVTISCTGTSSDVGGYNYVSWYQQHPGKAPKLMIYDVSNRPSGVSNRFSGSKSGNTASLTISGLQAEDEADYYCSSYTSSSTLYVFGTGTQLTVL
> 20000	CD22-63 CAR (other, CAR on primary human T cells; not shown: hinge, transmembrane, 4-1BB and CD3zeta parts of the CAR) EVQLQQSGPGLVKPSQTLSLTCAISGDSVLSNSDTWNWIRQSPSRGLEWLGRTYHRSTWYDDYASSVRGRVSINVDTSKNQYSLQLNAVTPEDTGVYYCARDRLQDGNSWSDAFDVWGQGTMVTVSSGGGGSGGGGSGGGGSQSALTQPASVSGSPGQSITISCTGTSSDVGGYNYVSWYQQHPGKAPKLMIYEVSNRPSGVSNRFSGSKSGNTASLTISGLQAEDEADYYCSSYTSSSTLYIFGTGTKVTVL
